Results on one molecule are retold here after patent publication US9913914B2, “Cell transport” (priority 2013, dated 2018).

Assay type in all cases: cell-based, Dictyostelium discoideum
For assay [1], the system named is Dictyostelium cells (PTEN-null phenotype). As to the kind of experiment: Streaming/aggregation of starved wild-type Dictyostelium cultures compared with PTEN-null mutant. The settings on record: 10 micromolar dose. How it is done:
FIG. 8. Cupid can transport large molecule cargo into the cell. Starved Dictyostelium cultures were plated into petri dishes in starvation buffer and visualised after 10 hours. In untreated wild-type (WT) cultures (A), cells stream together into aggregation centres, co-ordinated by cell to cell signaling.
In Dictyostelium, a genetic mutant in which the PTEN gene is absent causes marked changes in phenotype.

Assay [2] has as its system PTEN. In words: Protein phosphorylation response to cyclic AMP in starving Dictyostelium cultures (antibody detection on SDS gels). The note with it: pretreated 1 hour, 10 micromolar. The text has this: FIG. 10. In starving Dictyostelium cultures, several proteins undergo rapid phosphorylation/dephosphorylation events in response to an applied dose of cyclic AMP. The strength of this response is limited by PTEN enzyme activity. This response is visualised with antibody detection of these phosphoproteins on SDS gels prepared from extracted cultures at the time points indicated after the cAMP dose.
In starving Dictyostelium cultures, several proteins undergo rapid phosphorylation/dephosphorylation events in response to an applied dose of cyclic AMP. The strength of this initial phosphorylation response is limited by PTEN enzyme activity and is associated with changes in PIP2 and PIP3 inositol phospholipid levels.

The test system of assay [3] is PTEN. In words: Inositol phospholipid levels in starving Dictyostelium cells (solvent extraction, thin layer chromatography). The settings on record: 10 micromolar, 1 hour. The protocol: FIG. 9. The levels of the 4 inositol phospholipids (PI, PIP, PIP2 and PIP3) in wild-type Dictyostelium cells undergoing starvation were measured by solvent extraction of cell cultures and analysis using thin layer chromatography. The effect of Cupid B-PTEN peptide treatment (10 micromolar, 1 hour) was calculated as a percentage change in the basal (untreated) levels.
The PTEN protein has a phospholipase enzymatic activity that functions to remove phosphate groups from inositol-based lipids and as such is involved with maintaining the balance between varieties of inositol phospholipids present at the cell surface. In wild-type cells undergoing starvation the inositol phospholipids with 3 and 4 phosphate groups (PIP2 and PIP3) are kept low, largely due to the action of PTEN.
We determined the effect of Cupid B-PTEN peptide on the inositol phospholipid levels in Dictyostelium cultures. Cupid B-PTEN peptide treated cells (10 micromolar, 1 hour) alters the basal levels of inositol phospholipids in Dictyostelium cells.

B1: Cupid B-PTEN peptide: SEQ ID NO: 12; His-tagged Cupid B fused to 167 amino acid C2 region (186-352) of human PTEN (protein, listed as Homo sapiens)
chain: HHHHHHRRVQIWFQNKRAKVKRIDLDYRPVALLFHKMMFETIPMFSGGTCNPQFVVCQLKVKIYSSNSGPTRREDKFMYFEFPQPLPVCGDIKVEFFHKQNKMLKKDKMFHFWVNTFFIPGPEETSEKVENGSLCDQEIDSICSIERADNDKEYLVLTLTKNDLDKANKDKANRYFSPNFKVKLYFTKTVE
modifications: His tag
notes: His-tagged Cupid B fused to 167 amino acid C2 region (186-352) of human PTEN
With B1, the “aggregation behaviour of wild-type cells during starvation” value in assay [1] is listed as “exhibit the same distinctive behaviour as the PTEN-Null strain”. Moreover, the “initial phosphorylation response to cyclic AMP versus untreated cultures” value in assay [2] is listed as “much stronger initial phosphorylation response”. Also, in assay [3], the “level of PIP2 relative to untreated basal levels” value is listed as “+75%” and the “level of PIP3 relative to untreated basal levels” value was “+150%”.
